For four variants, ratio to parent results are on record in paper PMC5674072 (2017).

The chains are these.
B1: 3x Flag Matrin 3 wild-type (human) [human] / Aly (AlyRef) of NSC-34 cells [mouse (endogenous in NSC-34)] (parent complex)
chain 1: MSKSFQQSSLSRDSQGHGRDLSAAGIGLLAAATQSLSMPASLGRMNQGTARLASLMNLGMSSSLNQQGAHSALSSASTSSHNLQSIFNIGSRGPLPLSSQHRGDADQASNILASFGLSARDLDELSRYPEDKITPENLPQILLQLKRRRTEEGPTLSYGRDGRSATREPPYRVPRDDWEEKRHFRRDSFDDRGPSLNPVLDYDHGSRSQESGYYDRMDYEDDRLRDGERCRDDSFFGETSHNYHKFDSEYERMGRGPGPLQERSLFEKKRGAPPSSNIEDFHGLLPKGYPHLCSICDLPVHSNKEWSQHINGASHSRRCQLLLEIYPEWNPDNDTGHTMGDPFMLQQSTNPAPGILGPPPPSFHLGGPAVGPRGNLGAGNGNLQGPRHMQKGRVETSRVVHIMDFQRGKNLRYQLLQLVEPFGVISNHLILNKINEAFIEMATTEDAQAAVDYYTTTPALVFGKPVRVHLSQKYKRIKKPEGKPDQKFDQKQELGRVIHLSNLPHSGYSDSAVLKLAEPYGKIKNYILMRMKSQAFIEMETREDAMAMVDHCLKKALWFQGRCVKVDLSEKYKKLVLRIPNRGIDLLKKDKSRKRSYSPDGKESPSDKKSKTDGSQKTESSTEGKEQEEKSGEDGEKDTKDDQTEQEPNMLLESEDELLVDEEEAAALLESGSSVGDETDLANLGDVASDGKKEPSDKAVKKDGSASAAAKKKLKKVDKIEELDQENEAALENGIKNEENTEPGAESSENADDPNKDTSENADGQSDENKDDYTIPDEYRIGPYQPNVPVGIDYVIPKTGFYCKLCSLFYTNEEVAKNTHCSSLPHYQKLKKFLNKLAEERRQKKET
chain 2: not shown

The variants in the first assay derive from B1. Nature of the assay: co-immunoprecipitation (Aly IP) followed by western blot, quantified; NSC-34 stable cell lines; five replicates; WT vs 154 p = 0.2250; read off a plot.
For chain 1 P154S, the ratio to parent was approximately 1.6.

In the next assay the parent is B1. Description: co-immunoprecipitation (Aly IP) followed by western blot, quantified; NSC-34 stable cell lines; five replicates; WT vs 115: p = 0.9670; read off a plot.
Consider chain 1 F115C, for which the ratio to parent is approximately 1.2.

The variants in another assay derive from B1. Nature of the assay: co-immunoprecipitation (Aly IP) followed by western blot, quantified; NSC-34 stable cell lines; five replicates; WT vs 622 p = 0.9611; read off a plot.
Take chain 1 T622A: the ratio to parent is approximately 1.2.

A further assay covers variants of B1. Description: co-immunoprecipitation (Aly IP) followed by western blot, quantified; NSC-34 stable cell lines; five replicates; WT vs 85: p = 0.6561; read off a plot.
Take chain 1 S85C: the ratio to parent is approximately 1.4.
